Source: paper PMC3665079 (Biochemistry, 2013)
Where two headings read alike, the source gives them in different places.

B1: Escherichia coli DnaT protein (natural protein, E. coli, UniProt P0A8J2 1-179, looked up)
chain: MSSRVLTPDVVGIDALVHDHQTVLAKAEGGVVAVFANNAPAFYAVTPARLAELLALEEKLARPGSDVALDDQLYQEPQAAPVAVPMGKFAMYPDWQPDADFIRLAALWGVALREPVTTEELASFIAYWQAEGKVFHHVQWQQKLARSLQIGRASNGGLPKRDVNTVSEPDSQIPPGFRG

Experiments:
[1] = molecular target: DnaT N-terminal core domain (E. coli); experiment: fluorescence polarisation
[2] = molecular target: DnaT N-terminal core domain (E. coli); experiment: fluorescence polarisation; remark: listed apart in the source
[3] = molecular target: the molecule itself; experiment: AUC
[4] = molecular target: the molecule itself; experiment: fluorescence polarisation

| Molecule | dH [1] [kcal/mol] | dH [2] [kcal/mol] | stoichiometry N [3] | dH [4] [kcal/mol] |
| --- | --- | --- | --- | --- |
| DnaT N-terminal core domain (domain or fragment) | 2.2 | -4.6 |  |  |
| B1 |  |  | 3 | -15 ± 2 |
